Test results from the RNAGym collection of RNA variant scans (doi:10.1073/pnas.2313332121).

B1: TPR t1 (parent)
chain: GACCAAUCUGCCCUCAGAGCUCGAGAACAUCUUCGGAUGCAGAGGAGGCAGGCUUCGGUGGCGCGAUAGCGCCAACGUCCUCAACCUCCAAUGCAUCCCACCACAUGAUGAUGCCUGAAGAGCCUUGGUUUUUUG

Variants of: B1
Assay: polymerase ribozyme fitness, log enrichment relative to wild type (log ratio); higher = more active; in vitro selection for triplet polymerase activity
In short: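 Each subunit of a heterodimeric triplet polymerase ribozyme was mutagenized into a library by PCR, transcribed, and subjected to one round of in vitro selection, run in triplicate. Libraries were annealed with a biotinylated primer, the partner subunit and triplets, incubated frozen at −7 °C, and extended constructs were gel-excised, captured on streptavidin beads and recovered by RT-PCR. Input and output libraries were sequenced on Illumina, keeping genotypes with ≥10 input reads and ≥1 read per output. Fitness is log base 2 of genotype enrichment divided by wild-type enrichment, from inverse-variance-weighted replicate averages.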

| Variant | polymerase ribozyme fitness (log ratio) |
| --- | --- |
| C15G G25C A41U U109A | -5.74 |
| C15G G25U A37U G69U G120C | -7.24 |
| C15G G48U A50G G63C U106A U109C | -6.17 |
| C15G G61C | -2.41 |
| C15G G61C A90G U96A | -6.02 |
| C15G G63C A84C | -4.12 |
| C15G G77C | -2.39 |
| C15G G120A | -1.53 |
| C15G U55A C70A A83U C97U U130C | -5.79 |
| C15G U59C C86U U116G | -4.2 |
| C15G U132C | -2.23 |
| C15U A16C | -2.44 |
| C15U A16U G23A G63A G93C C114G | -7.78 |
| C15U A18G U59A G93C C104U | -5.54 |
| C15U A18U C20U C28G G61U U87G C115U | -5 |
| C15U A18U C34U A41G G48C U106A A111G C124G | -6.92 |
| C15U A26G G63C G71A C102U U109G U112A U129A | -3.42 |
| C15U A27C C56G C73U C97U | -6.81 |
| C15U A29U C40A A46C C123A | -5.62 |
| C15U A37G C53U U116C | -2.52 |
| C15U A37G C64U | -1.81 |

| Variant | polymerase ribozyme fitness (log ratio) |
| --- | --- |
| C15U A41U G48U | -3.71 |
| C15U A43C C70A C123U C124A | -4.89 |
| C15U A43C G69A C123U C124A | -5.69 |
| C15U A43G C124A | 0.00445 |
| C15U A43U G69U C88U A91C G120C | 0.39 |
| C15U A46C C70G | -4.3 |
| C15U A50C | -1.84 |
| C15U A74U A83C A100U U116A | -5.53 |
| C15U A83C A91G A111G | -2.96 |
| C15U A83G U87C | -2.34 |
| C15U A91C | -2.75 |
| C15U A91G A105G U112A | -3.8 |
| C15U A95G | -1.71 |
| C15U A95G C114G | -4.48 |
| C15U C20A U81G U112G | -6.15 |
| C15U C22A U54A C124A | -3.89 |
| C15U C28U G44U C62U U87C U106C | -5.37 |
| C15U C34G C49G G69U G120A | -3.56 |
| C15U C40A G60C | -2.3 |
| C15U C56U G69U C102A | -5.73 |
| C15U C62U U112G | -0.275 |

| Variant | polymerase ribozyme fitness (log ratio) |
| --- | --- |
| C15U C70G U78A C86G G127A | -5.32 |
| C15U C72A C73A U81A A84G | -4.77 |
| C15U C72U | -1.62 |
| C15U C73U | -1.36 |
| C15U C76A | -1.94 |
| C15U C79U | -1.97 |
| C15U C80A | -4.32 |
| C15U C86U | -1.61 |
| C15U C88G A103C C115G | -6.98 |
| C15U C99U G120C G122U | -3.71 |
| C15U C102U | -3.1 |
| C15U C104U G117U | -0.366 |
| C15U C115U | -1.42 |
| C15U C124U | 0.776 |
| C15U G17A C40G C64A A90G C94A C104G G120C | -7.98 |
| C15U G17C A121C | -2.22 |
| C15U G17C C72A A121C | -1.65 |
| C15U G19A C89A | -5.15 |
| C15U G25A | -4.87 |
| C15U G36C U54C C85A G117U G127C | -5.33 |
| C15U G39A | -3.08 |

| Variant | polymerase ribozyme fitness (log ratio) |
| --- | --- |
| C15U G39C | -1.93 |
| C15U G39C A66U G69C A75U | -3.53 |
| C15U G42U U87G C88A C101U G113U | -5.85 |
| C15U G44U G63C A66U G117U G128A | -6.51 |
| C15U G47U G52C C53A C124G | -1.51 |
| C15U G48U A74C G77C | -2.27 |
| C15U G51A C72G A121C | -2.34 |
| C15U G51U G60A | -5.07 |
| C15U G52A G93A A95G | -2.44 |
| C15U G52A U59A A118U | -2.24 |
| C15U G52U | -2.36 |
| C15U G58A | -1.84 |
| C15U G58A C85A G113U | -5.84 |
| C15U G58C C72A C102G G107U A121C | -6.59 |
| C15U G60A | -0.966 |
| C15U G60A C73U U78A G135U | -1.76 |
| C15U G63U | -3.19 |
| C15U G69A G113C | -5.7 |
| C15U G69C | -2.64 |
| C15U G69U C102A | -1.95 |
